From the supplement of paper PMC9112550, “Optimization of the antimicrobial peptide Bac7 by deep mutational scanning” (BMC Biology, 2022)

The sequences below were run on Escherichia coli TOP10 (assay: shrunken log2 fold change of peptide-encoding DNA abundance (4.5 h post-induction vs induction); higher = less antimicrobial activity (less host growth inhibition)). Conditions: time post-induction: 4.5 h; library: site-saturation at positions 5, 18, 19, 20.
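Also: peptides expressed intracellularly from a pBAD plasmid library in pooled LB shake-flask culture, induced with 0.3% L-arabinose, DNA abundance read by NGS, three biological replicates, DESeq2 with apeglm shrinkage.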

In order of rising “shrunken log2 fold change” value:
1. RRIRIRPPRLPRPRPRPLVIPRP  -1.46
2. RRIRERPPRLPRPRPRPPYDPRP  -1.12
3. RRIRTRPPRLPRPRPRPYFPPRP  -0.995
4. RRIRSRPPRLPRPRPRPQYNPRP  -0.863
5. RRIRLRPPRLPRPRPRPYKVPRP  -0.756
6. RRIRCRPPRLPRPRPRPIHKPRP  -0.638
7. RRIRFRPPRLPRPRPRPHFKPRP  -0.599
8. RRIRFRPPRLPRPRPRPEYMPRP  -0.421
9. RRIRQRPPRLPRPRPRPYMFPRP  -0.392
10. RRIRERPPRLPRPRPRPGTNPRP  -0.361
11. RRIRWRPPRLPRPRPRPEKYPRP  -0.357
12. RRIRIRPPRLPRPRPRPDTYPRP  -0.347
13. RRIRTRPPRLPRPRPRPCMKPRP  -0.332
14. RRIRHRPPRLPRPRPRPQKNPRP  -0.3
15. RRIRYRPPRLPRPRPRPRILPRP  -0.276
16. RRIRSRPPRLPRPRPRPKSYPRP  -0.231
17. RRIRERPPRLPRPRPRPPLNPRP  -0.192
18. RRIRVRPPRLPRPRPRPCYQPRP  -0.142
19. RRIRQRPPRLPRPRPRPMMNPRP  -0.127
20. RRIRSRPPRLPRPRPRPGFTPRP  -0.125
21. RRIRYRPPRLPRPRPRPYSKPRP  -0.124
22. RRIRFRPPRLPRPRPRPAGMPRP  -0.124
23. RRIRPRPPRLPRPRPRPELMPRP  -0.109
24. RRIRRRPPRLPRPRPRPTQIPRP  -0.0829
25. RRIRIRPPRLPRPRPRPAHVPRP  -0.0796
26. RRIRARPPRLPRPRPRPVDSPRP  -0.0786
27. RRIRFRPPRLPRPRPRPPSQPRP  -0.0751
28. RRIRIRPPRLPRPRPRPEQHPRP  -0.0723
29. RRIRTRPPRLPRPRPRPSNFPRP  -0.0603
30. RRIRLRPPRLPRPRPRPILFPRP  -0.0559
31. RRIRMRPPRLPRPRPRPYAGPRP  -0.0412
32. RRIRNRPPRLPRPRPRPAQPPRP  -0.0398
33. RRIRPRPPRLPRPRPRPWQAPRP  -0.0268
34. RRIRVRPPRLPRPRPRPWIMPRP  -0.0202
35. RRIRERPPRLPRPRPRPPIRPRP  -0.0192
36. RRIRTRPPRLPRPRPRPNYPPRP  -0.0192
37. RRIRPRPPRLPRPRPRPVKSPRP  -0.0156
38. RRIRVRPPRLPRPRPRPCRQPRP  -0.0134
39. RRIRVRPPRLPRPRPRPHKAPRP  -0.0103
40. RRIRIRPPRLPRPRPRPFTYPRP  -0.00992
41. RRIRDRPPRLPRPRPRPWPHPRP  -0.00987
42. RRIRSRPPRLPRPRPRPDQKPRP  -0.00231
43. RRIRTRPPRLPRPRPRPEVYPRP  -0.00166
44. RRIRIRPPRLPRPRPRPKGEPRP  0.00835
45. RRIRYRPPRLPRPRPRPDDEPRP  0.00902
46. RRIRNRPPRLPRPRPRPQERPRP  0.0235
47. RRIRSRPPRLPRPRPRPLRMPRP  0.0358
48. RRIRWRPPRLPRPRPRPHDKPRP  0.0422
49. RRIRLRPPRLPRPRPRPVTKPRP  0.0485
50. RRIRARPPRLPRPRPRPIRIPRP  0.0541
51. RRIRLRPPRLPRPRPRPFWFPRP  0.0715
52. RRIRPRPPRLPRPRPRPMSAPRP  0.0743
53. RRIRLRPPRLPRPRPRPRTQPRP  0.0772
54. RRIRMRPPRLPRPRPRPGKRPRP  0.078
55. RRIRVRPPRLPRPRPRPKKIPRP  0.0852
56. RRIRFRPPRLPRPRPRPHQQPRP  0.0921
57. RRIRWRPPRLPRPRPRPQSHPRP  0.105
58. RRIRIRPPRLPRPRPRPATQPRP  0.129
59. RRIRWRPPRLPRPRPRPRLLPRP  0.178
60. RRIRSRPPRLPRPRPRPTVGPRP  0.187
61. RRIRTRPPRLPRPRPRPPDPPRP  0.197
62. RRIRGRPPRLPRPRPRPDTKPRP  0.239
63. RRIRTRPPRLPRPRPRPLRHPRP  0.252
64. RRIRRRPPRLPRPRPRPHWLPRP  0.28
65. RRIRLRPPRLPRPRPRPRLSPRP  0.346
66. RRIRTRPPRLPRPRPRPTFWPRP  0.467
67. RRIRQRPPRLPRPRPRPSAAPRP  0.486
68. RRIRCRPPRLPRPRPRPASEPRP  0.49
69. RRIRWRPPRLPRPRPRPDMRPRP  0.499
70. RRIRRRPPRLPRPRPRPFPNPRP  0.558
71. RRIRKRPPRLPRPRPRPGCGPRP  0.761
72. RRIRSRPPRLPRPRPRPEAAPRP  0.873
73. RRIRWRPPRLPRPRPRPPPDPRP  0.906
74. RRIRARPPRLPRPRPRPVESPRP  0.986
75. RRIRGRPPRLPRPRPRPEGWPRP  1.99
